Measured values as given in IntAct's records for PubMed 18502764.

Target: ehd2_mouse Ehd2 (UniProt Q8BH64)
Sequence of UniProt Q8BH64 (Q8BH64 whole entry): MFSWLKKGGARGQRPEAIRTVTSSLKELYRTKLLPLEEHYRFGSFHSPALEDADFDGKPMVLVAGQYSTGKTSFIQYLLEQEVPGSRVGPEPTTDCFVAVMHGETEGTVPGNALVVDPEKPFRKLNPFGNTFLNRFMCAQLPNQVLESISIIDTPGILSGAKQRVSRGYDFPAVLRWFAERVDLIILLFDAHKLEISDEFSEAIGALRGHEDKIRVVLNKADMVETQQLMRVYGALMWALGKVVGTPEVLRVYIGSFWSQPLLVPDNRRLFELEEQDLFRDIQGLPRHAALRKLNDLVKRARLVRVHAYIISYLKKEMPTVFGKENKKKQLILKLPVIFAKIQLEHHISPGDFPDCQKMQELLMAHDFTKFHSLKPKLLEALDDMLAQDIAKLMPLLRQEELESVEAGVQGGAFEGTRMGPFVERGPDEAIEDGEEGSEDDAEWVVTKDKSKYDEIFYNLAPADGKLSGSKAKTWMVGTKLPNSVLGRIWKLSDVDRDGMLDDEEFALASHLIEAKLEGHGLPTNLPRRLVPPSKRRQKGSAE

Myoferlin (Homo sapiens), Q9NZM1 N238C
effect of a mutation on the interaction: decreasing interaction
